Test: soluble on expression in E. coli; label from the status in PepcDB or PDB records

Soluble on expression in E. coli, not soluble:
MGSDKIHHHHHHMSFPTIPDITPTISINRSDVINLLLASIAFEELGLAHIINAEAEKIQYILGTLSEQVPTEPPTQDDLIEINKSVNQTLRTVIKNQMLLQFKLEDLIVENPLPSITIKKYVSGDGGVTWYDADSPPGPTIDPEQVPMFRFVITNTGNVILTGVTVTDSVLGLISTGGILPPGAFFEEYRSGEYLGGDQSNTATVIGYYLDQQVEDSDVAYYTEPT
MGSDKIHHHHHHMSFRMIEPETIDDAAFVSSTVPETDAPVWDASTDYPFSDPDNPEEVIVEVGQHAIYRAVAPSGPSHGGAVDPATDTGNTKWVKIRSTNRWRVFDEYIGDPSVQANSAQWVITAPKVIDSVSLFGLYALSVTVLVRDSGGAEVYNQTYSLQDESGVVDLYTYLTSPIILSDRLVITDIPPYAGAKVTVTAEASGEDVEVGQIVIGRKEEIGVTIDEIPLSIQDFSRKERDPDFGRVSLLEKDFADEMPVAFVFPTSRASYLKSRLASRRAKLTVYSSDGPYKANEFSVYGFYQSFQVVPRIGSESEGILELESIT
MGSDKIHHHHHHMSGNESVVNYDHFIDKRRVRKAFERAAPLYDQAAVLQREVCDRMLSRLEYIKYMPDVVLDAGSGTGYGTCKLLERYPDASMLAIDIATGMHHQARQRMNSMIPRWRQLFGVGRNQRTSRVRYVAGDIEQLPLEDSCAGLVWSNLALQWCNDLKKTFDEMRRILKNGGLFMFSTFGPDTLKELRQAFRHADDYSHVNRFADMHDIGDMLVHSGFATPVMDMEYITLTYDEVISVMRDLKAIGAHNATGARHRGLTGKNAWQKAIGHYETLRTGGKLPATFEVVYGHAWKPAPRTSILTPETRRHIGLE
MGSDKIHHHHHHMSGPQKANDLLGQIPKTKGLPPVHLWNPDFCGDIDMRIARDGTWYYLGTPIGRKPMVKLFSTIIRRDGDDYFLITPVEKVGIKVDDAPFVAIAVEMEGEGEAQVLRFTTNVDETTEAGAEHLIRVEIDPVTQEPAPYVHVRTNLEALIHRNVFYQLVELAVSREIDGQRWLGVWSGGEFFRIGLEP
MGSDKIHHHHHHMSGTHDTKQAIASALIELCEQKDFRKISVQDITKKVGLNRQTFYYHFTDKYDLLRWIYRHDALIYLETDICLENWEEQALKLLKAIKEKSHFYYTTVTSDSEVLLNVFSASTNRLFISLFEQVDVENHLTDKDKQFYANFFSYGCSGVLTKWILEEYPQTPLEMATQLFRLAKDTEFMAYHLYEQEANE
MGSDKIHHHHHHMSIEQLADLTQPQRDRLAFVELRVRFIGEIRRQDLVSRFGIQSAAASRDLALYKELVPGNIDYDSKGKSYVLGPDFRPLFEFPPERVLSWLTQGFGDGEPMQLKAWVASESPSRLARPDLTVLASVTRAIHQGCPLAVEYHSISSGKANRQIVPFALIDDGQRWLVRAFDRESQQFRDFVITRIRNPQVLKGENPAPHEASDQDIQWTRILELDLVPHPNRPHPEISEMDYSMERGVWKMKLRAAMAGYILCKLRVDCSPTHKLNGSEHRLWLRNHLALYGVRSAVLAPGYESPEPVGQEQDGD
MGSDKIHHHHHHMSIKSDKWIRRMAAQHGMIEPFEPNPIRQVNGEKIVSYGTSSYGYDIRCADEFKVFTNINSTIVDPKNFDPNSFVEFKNDFCIIPPNSFALARTVEYFRIPRSVLTVCLGKSTYARCGIIVNVTPFEPEWEGYVTLEFSNTTPLPAKIYAGEGCAQVLFFESDEECEISYKDRGGKYQGQVGVTLPKI
MGSDKIHHHHHHMSIRGKAFIVGAYEHPGRNLPDHSVQQIHAECAMGALSDAGLSIKDVDGYFSNGQLGFGGISMAEYLGLRLSYIDSTFTGGSSYMAHVGHAAAAIAAGKCKVALITQGAKVRGVIRGAKHTADTPEFPFETVYGETNAAIYALAARRHMHEYGTTAEQLAAVKVAAAAYAQHNPNALLRKLVSIDDVMNSPIIADPLHRLDCCVVTDGGGALVLVAPEIARSLKRQSVKLLGHAEAIRHGGDGPSDFASTAAALSGPRAFTEAGVSPRDVRYASIYDSFTITVIMTLEDLGFCGKGEGGAFVASGALGLDGLLPINTDGGGLCNNHPGYQGGMVRTIEAVRQLRGEANPNTQVKNCTIALAHGTGGGMSRHASVTLVLGQEDA
MGSDKIHHHHHHMSKEIDIEYYHQLALQKQKEHRKVLANLKKKPPKNLDKIAQQIHQEVFEEIDCTACANCCKTLGPDFKEADITRIAKYFKMKLPAFEAEFLQVDADGDKVFKSMPCPFLGGDNLCSIYDVRPKACREFPHTDRKKIHQINHLTIKNTLTCPAAYLFVEKLKDKL
MGSDKIHHHHHHMSKFKVKRLTAHILMLKVINDMLKYSFHLTLTQVKLLNLLVKYDNSDSNSASIDRLLKMKEIQSKMALLQMLSYLNNHQWLLKGRDQRDQRKLTISINKMHIDKIEYMNNELSDYIERYFGQYTFDFSCDYVSYLLSSQELFRNLKCYLNMCQLTLEELYVLGILNLHKGQLTVKELQGEFHHPIFAVSPILKCLILKGLVKKERCELDERRVIVTIKREKFSKVTMLIQACYNYLEKGIQVKLNNK
MGSDKIHHHHHHMSKLNMKEWINEIIQKKEVVAMPIMTHPGIEMIGKTVRDAVTDGQVHYNAIKALSEKYPTAAATVIMDLTVEAEAFGAEIVFPENEVPSVVGRLLNDEEAIDKLEIPALNKGRIPQYLKANMLAAKTITDRPVFAGCIGPYSLAGRLYDMSEIMMLIYINPEAANSLLKKCSDFILRYCMALKATGVNGVVMAEPAAGLLSDEDCTQYSSVFIKEIVEKVQDDHFTVILHNCGNTGHCTKAMVATGAAAYHFGNKIDMVEALKEVPADALAMGNLDPVSLFKAATPEVMKKATLDLLEATRSYPNFVLSSGCDTPPHTPSENIDAFFAALNEFNNA
MGSDKIHHHHHHMSKTIQAITNQIWSMANELRGNMDASEYKNYILAFMFYRYLSEHQERFLVEDEIISPAPGETVQDAYVREAVGNDLVEHLENTASHLGYAIEPEDTWARLVAKIDNSEIVASDYQTIFDHFNANVELNRDAMEDFRGVFNDINLGDSRLGNSTVARAKSLNSIVKLIDSIEYKNDEGKDILGEIYEYLIGQFAASAGKKGGEFYTPHQVSKILAKIVTLGLEKSDTSFSVYDPTMGSGSLLLTVRNELPQGQHIKFYGQEMNTTTYNLARMNLMMHQVSYSNMILNNADTLESDWPDGVDELGIDQPRSFDAVVANPPYSAKWDNRESKLKDPRFMEYGKLAPASKADFAFILHSLYHLNNTGTMAIVLPHGVLFRGAAEGHIRKLIIEKNYLDAVIGLPANLFYGTGIPTTILVFKKNRQTKDVFFIDASKEFEKGKNQNHLSDDMVEKIVETYHNRQSVDKYAHLASIEEIVENDYNLNIPRYVDTFEEEEEIDLGQVTQQLEQDRLEIRALEDKIRQQLKTLGVDF
MGSDKIHHHHHHMSKVFIATANAGKAHDADIFSVSACNSFTVSCSGDGYLKVWDNKLLDNENPKDKSYSHFVHKSGLHHVDVLQAIERDAFELCLVATTSFSGDLLFYRITREDETKKVIFEKLDLLDSDMKKHSFWALKWGASNDRLLSHRLVATDVKGTTYIWKFHPFADESNSLTLNWSPTLELQGTVESPMTPSQFATSVDISERGLIATGFNNGTVQISELSTLRPLYNFESQHSMINNSNSIRSVKFSPQGSLLAIAHDSNSFGCITLYETEFGERIGSLSVPTHSSQASLGEFAHSSWVMSLSFNDSGETLCSAGWDGKLRFWDVKTKERITTLNMHCDDIEIEEDILAVDEHGDSLAEPGVFDVKFLKKGWRSGMGADLNESLCCVCLDRSIRWFREAGGK
MGSDKIHHHHHHMSKVFIVGAAGNVGRRLTQQLAQRGHTLMAMHRHPDQADAIQAAGGVSVLGDITQISATDLATLMSGNDAIVFSAGAGGKGIQLTNDVDGKGLELAVEAAQLAGIQRFILVSVFPDALRGGSVSASFENYMLVKKHADVHLVSTDLDWVILRPGTLLDEVGTGKVNAAVAIPYGSVSRDDVAATLVELIEQPKVNRIIIELTQGEIPINDAISRLVAQ
MGSDKIHHHHHHMSLDRVDWPHATFSTPVKRIFDTQTTLDFQSSLAIHRIKYHLHKYTTLISHCSDPDPHATASSIAMVNGLMGVLDKLAHLIDETPPLPGPRRYGNLACREWHHKLDERLPQWLQEMLPSEYHEVVPELQYYLGNSFGSSTRLDYGTGHELSFMATVAALDMLGMFPHMRGADVFLLFNKYYTIMRRLILTYTLEPAGSHGVWGLDDHFHLVYILGSSQWQLLDAQAPLQPREILDKSLVREYKDTNFYCQGINFINEVKMGPFEEHSPILYDIAVTVPRWSKVCKGLLKMYSVEVLKKFPVVQHFWFGTGFFPWVNIQNGTDLPVFEEKEEESIEQANAGSPGREQTSTRFPTSTSMPPPGVPPSGNNINYLLSHQNQSHRNQTSFSRDRLRR
MGSDKIHHHHHHMSLKKQIPIIFENTHYFIVNKPPGIPSQPPDCRTWGRTHPNLDPTPLLERFKAIYYSHREVELCRTVHRLDHCVTGGMLIAKTKDGSVKFSRFLQKGGNNGYKLQRKYVAIVESSGRFNKPNNYEIKYGPKYNFLISHGGREITKFKEVDENCIVLQLVTGKKHQIRNHVSQILNQPILNDKRHGSTVNFPELFNDQIALHSACIITKIGLQTKTHLIPMEHNNTGQLWSRKYVNEEGEFTLPIKEVLLENWDQ
MGSDKIHHHHHHMSLSYKEMHQTLMEELRLYHYPVAVKFFFDDEELATFKEKAEFYVPVKPMTFCQWELAARMKGQTVLATREDLGCSNALVSFGWKDIDDNEIKSHMKYVRSIEQAEKFVRSKPRLDMGSVKAIAVGPLGDAIVAPSVVHFYCDNMQSYHLAVDYMAAMDQHPLRTNVTMNSSACGGTVFSFLEKTANMLPACSGSYNAGKTERGEINFMIPGEHIEATVERLLERKRNLGSSAITRPGDGFPGADVCKNCPLIIFKKEK
MGSDKIHHHHHHMSNNHKDSTINLYNHTASDWIRGEPSSLSDFTARPSVLELCEPVSGLRVVDIGCGEGYCSRELHRRGAAQVYGIDLSQGMIEAAKLQEVEHPLSISYEVGCATNLKRFDDSEIDLVVAVFLFNYLTISQTQECMAEVARILRPGGRFVFSVPHPSFPYMREAAYPFYFQVEGAGYFSNRDQQFPGRIWKRDGSWLNVQLIHKTLEDYFNALRIAGFNTMPILQELRVTSEHIAVDKSFFSPLLDQPLHLALQILR
MGSDKIHHHHHHMSNNKCITVIGGVYIERYAWPHWDELYGSGGRALSVLQSLGCATKLYSCLNKDSANILQARAGIYKTSFEICSSLKESYRPIKFHYLHGLSTPQISAITTEFAQQNEIIEDNILVFGMLEGNPTISGNKVVYDPQNPISPKDFSENGSTANELAIVLNTNEAYKLIKNRNLSLDEIAYELIKNKAKVVIIKQGVRGVNIYQKLNDRYIKKDSVPCYFTKNVWKIGSGDCFSAHFAYQWIYEGKTPTEAAELASKATAYYCETRGYPSFEEFTNWKNRVQPITHRHSEKKVTVYLAGPFFTLSQIWLINETRRLLSEMGLIVFSPYHEIGTGDAIMVVPKDIDGINNSDIIFAIFDGKDSGTIFEIGYATAKNKPVIVYNENEKSEDLKMMEGTDCIVIKDYVSAIYRTLWESQKL
MGSDKIHHHHHHMSNTPIELKGSSFTLSVVHLHEAEPKVIHQALEDKIAQAPAFLKHAPVVLNVSALEDPVNWSAMHKAVSATGLRVIGVSGCKDAQLKAEIEKMGLPILTEGKEKAPRPAPTPQAPAQNTTPVTKTRLIDTPVRSGQRIYAPQCDLIVTSHVSAGAELIADGNIHVYGMMRGRALAGASGDRETQIFCTNLMAELVSIAGEYWLSDQIPAEFYGKAARLQLVENALTVQPLN

Source: the DeepSol protein solubility set
